Assay results from patent US10927354B2, “D-type amino acid dehydrogenase” (Kureha Corporation, priority 2017, dated 2021).

B1: D-type amino acid dehydrogenase: D-type amino acid dehydrogenase derived from N. massiliense, amino acid sequence SEQ ID NO: 2, hexamer (protein)
chain: MSNVYNVAVVGYGNIGKYAVQAIDAAPDMQLAGVVRRASSAAKDTPPELVGRRVVHDIRDLEQVDVAILAAPTRTIPAYARDVLSLGIHTVDSYDIHGELANLRRELDDVSKKNDSVAIISAGWDPGTDSMIRGMLEFMAPGGLTYTNFGPGMSMGHSVAVKAIDGVKDALSLTIPLGTSIHRRMVYVELEAGADFETVKKAILADPYFVNDETHVTQVPNVQQLVNVGHGVSMERRGVSGATHNQLFTFEMRINNPALTSQVLVAAARATFKQQPGAYTMIEVPVIDYLPGDRDDIIRRLV
modifications: hexamer; Numidum massiliense

Assays:
[1] = test system: D-type amino acid dehydrogenase derived from N. massiliense; test: Kinetic analysis of D-type amino acid dehydrogenase; format: biochemical, Numidum massiliense; conditions: meso-diaminopimelic acid as substrate, NADP^+ or NAD^+ as coenzyme; values for meso-diaminopimelic acid determined using NADP^+
Description: The absorbance was measured by an ultraviolet-visible spectrophotometer UV-1800 (available from SHIMADZU). The specific activity of the enzyme was calculated from the concentration of the enzyme used and enzyme dilution rate using the obtained absorbance change and the following equation. […] A turnover number (kcat) as a reaction rate parameter, a Michaelis constant (Km) value, and catalytic efficiency (kcat/Km) were determined with Igor Pro ver. 3.14 (available from WaveMetrics) based on Michaelis-Menten equation after the initial velocities were plotted against different substrates and coenzyme concentrations.

[2] = Coenzyme dependence by activity-staining; format: biochemical; conditions: 10 mM meso-diaminopimelic acid, 1.25 mM coenzyme, pH 8.0, 50° C., 30 minutes
Description: The coenzyme dependence was evaluated for the D-type amino acid dehydrogenase obtained in Example 2 above. The coenzyme dependence of the enzyme was evaluated by an activity-staining method due to a catalytic reaction of the enzyme.
More specifically, an appropriate amount of enzyme solution was subjected to disc gel electrophoresis. […] The 2-(4-iodophenyl)-3-(4-nitrophenyl)-5-phenyl-2H-tetrazolium chloride in the reaction solution is reduced to form a […] formazan. A reaction formula is indicated below. In the following reaction formula, the D-type amino acid dehydrogenase is referred to as “meso-DAPDH”.

[3] = Thermal stability of D-type amino acid dehydrogenase; format: physicochemical; conditions: 60° C., 30 minutes, 10 mM phosphate buffer pH 7.2; relative to treatment at 40° C. as 100%
Description: The D-type amino acid dehydrogenase purified in Example 2 was heat-treated in 10 mM phosphate buffer solution (pH 7.2) under various temperature conditions (40° C., 45° C., 50° C., 55° C., 60° C., 65° C., or 70° C.) for 30 minutes to confirm residual activity after being left to stand for 5 minutes on ice. […] The residual activity after treatment at other temperatures was calculated as a relative activity with treatment at 40° C. as 100%.

[4] = pH stability of D-type amino acid dehydrogenase; format: physicochemical; conditions: pH 5.5 to 9.5, 50° C., 30 minutes; relative to pH 5.5 as 100%
Description: The D-type amino acid dehydrogenase purified in Example 2 was subjected to a heat treatment at 50° C., in 100 mM of each buffer solution (pH 4.0, 4.5, 5.0, 5.5, 6.0, 6.5, 7.0, 7.5, 8.0, 8.5, 9.0, 9.5, 10.0, 10.5, 11.0, 11.3, 12.0, 12.3, or 13.0) for 30 minutes to confirm residual activity after being left to stand for 5 minutes on ice. […] The residual activity after treatment at other pH was calculated as a relative activity with treatment at pH 5.5 as 100%.

[5] = Optimum pH in catalytic reaction (deamination of meso-diaminopimelic acid); format: biochemical; conditions: deamination of 10 mM meso-diaminopimelic acid, 1.25 mM NADP^+, 50° C.
Description: The optimum pH was evaluated for the D-type amino acid dehydrogenase obtained in Example 2. The activity of the enzyme was measured by determining an increase in absorbance at wavelength of 340 nm of NADPH produced by the catalytic reaction of the enzyme.
The absorbance was measured by an ultraviolet-visible spectrophotometer UV-1800 (available from SHIMADZU). The specific activity of the enzyme was calculated from the concentration of the enzyme used and enzyme dilution rate using the obtained absorbance change and the following equation.

[6] = Optimum temperature in catalytic reaction; format: biochemical; conditions: deamination of meso-diaminopimelic acid, NADP^+, 50-80° C. tested
Description: The measurement results are illustrated in FIG. 6. From the results, it was confirmed that the optimum temperature for activity was about 75° C.

[7] = Activity-staining with D-alanine or L-alanine; format: biochemical; conditions: 10 mM D-alanine or L-alanine, 1.25 mM NADP^+, pH 8.0, 50° C., 30 minutes
Description: The activity was evaluated for the D-type amino acid dehydrogenase obtained in Example 2 above. The activity of the enzyme was evaluated by an activity-staining method due to a catalytic reaction of the enzyme. More specifically, an appropriate amount of enzyme solution was subjected to disc gel electrophoresis. […] 2-(4-iodophenyl)-3-(4-nitrophenyl)-5-phenyl-2H-tetrazolium chloride in the reaction solution is reduced to form a […] formazan. A reaction formula is indicated below. In the following reaction formula, the D-type amino acid dehydrogenase is referred to as “meso-DAPDH”.

| Molecule | kcat [1] [s⁻¹] | coenzyme dependence (activity-staining) [2] | residual activity after heat treatment [3] | residual activity after pH treatment [4] [%] | optimum pH for activity [5] | optimum temperature for activity [6] | D/L selectivity (activity-staining) [7] |
| --- | --- | --- | --- | --- | --- | --- | --- |
| NC(=O)c1ccc[n+]([C@@H]2O[C@H](COP(=O)([O-])OP(=O)(O)OC[C@H]3O[C@@H](n4cnc5c(N)ncnc54)[C@H](O)[C@@H]3O)[C@@H](O)[C@H]2O)c1 [NAD^1] | 8930 | – | – | – | – | – | – |
| B1 | – | utilized both NAD^+ and NADP^+ coenzymes | about 76% | ≥ 90 | 10.5 | about 75 °C | selectively acts on the D-amino acid |
